According to IntAct's records for PubMed 18835279:

B1: Tax1-binding protein 3 (Mus musculus), Q9DBG9 (parent)
chain: MSYTPGQPVTAVVQRVEIHKLRQGENLILGFSIGGGIDQDPSQNPFSEDKTDKGIYVTRVSEGGPAEIAGLQIGDKIMQVNGWDMTMVTHDQARKRLTKRSEEVVRLLVTRQSLQKAVQQSMLS

Variants of: B1
Conditions: with ctnb1_human CTNNB1, P35222
ctnb1_human CTNNB1, P35222, sequence (P35222 whole entry): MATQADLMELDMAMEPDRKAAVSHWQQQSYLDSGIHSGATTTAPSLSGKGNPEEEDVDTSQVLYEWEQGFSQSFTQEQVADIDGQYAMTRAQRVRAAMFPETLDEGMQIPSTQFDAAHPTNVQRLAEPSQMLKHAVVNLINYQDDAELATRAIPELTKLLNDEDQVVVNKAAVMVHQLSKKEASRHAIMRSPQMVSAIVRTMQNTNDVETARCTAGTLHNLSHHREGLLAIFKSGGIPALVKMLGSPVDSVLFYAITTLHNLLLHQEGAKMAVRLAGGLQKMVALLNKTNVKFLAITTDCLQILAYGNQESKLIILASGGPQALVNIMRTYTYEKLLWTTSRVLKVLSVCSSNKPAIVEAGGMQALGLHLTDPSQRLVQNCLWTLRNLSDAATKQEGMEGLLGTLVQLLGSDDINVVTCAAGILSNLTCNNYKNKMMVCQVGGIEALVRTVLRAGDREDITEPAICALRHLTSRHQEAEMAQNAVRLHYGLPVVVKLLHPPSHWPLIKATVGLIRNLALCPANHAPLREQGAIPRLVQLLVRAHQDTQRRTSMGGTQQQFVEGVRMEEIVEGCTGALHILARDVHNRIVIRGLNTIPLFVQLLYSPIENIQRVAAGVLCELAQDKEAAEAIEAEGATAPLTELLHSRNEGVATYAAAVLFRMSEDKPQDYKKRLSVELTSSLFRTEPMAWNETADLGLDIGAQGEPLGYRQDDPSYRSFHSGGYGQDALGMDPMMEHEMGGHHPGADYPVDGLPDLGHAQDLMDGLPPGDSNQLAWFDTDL

Variant	effect of a mutation on the interaction
P45A	decreasing interaction
P45S	decreasing interaction

Variants of: B1
Conditions: with ctnb1_human CTNNB1, P35222
Remark: another data set of the same source

Variant	effect of a mutation on the interaction
P45A	increasing interaction
